Experimental data from patent US20250066498A1 (GO THERAPEUTICS, published 2025).

Experiments:
[1] = target: T1, LAMP1-Tn peptide Biotin-CEQDRPSPTTAPPAPPSPSP (human, N-terminal biotin; O-linked GalNAc on the serine at position 7 and the threonines at positions 9 and 10); assay: BLI (Octet), peptide on biosensor, apparent affinity
T1 construct: Synthetic 20-mer glycopeptide made by FMOC synthesis; also called LAMP1 glycopeptide; glycosylated LAMP1 peptide
T1 peptide: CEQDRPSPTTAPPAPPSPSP

[2] = target: T2, LAMP1-Tn (T1) peptide Biotin-CEQDRPSPTTAPPAPPSPSP (human, N-terminal biotin; GalNAc on one threonine (label 'T1'). By the order of items in paragraph 452 and paragraph 453 this is the threonine at position 9); assay: as above
T2 construct: Singly glycosylated form of the LAMP1 20-mer
T2 peptide: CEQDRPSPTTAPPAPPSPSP

[3] = target: T1, LAMP1-Tn peptide …; assay: BLI (Octet), peptide on biosensor, apparent affinity (Example 3)
Experimental: Antibody affinity and epitope binning of monoclonal antibodies can be assessed against specific antigens using BLI. […] The affinity is determined by fitting the binding curve to a specific model: a 1:1 monovalent model or a 2:1 bivalent model. The error (>95% confidence) is calculated by how close the generated curve matches the model.
To characterize the cross-reactivity between mAb237 the anti-glyco-LAMP1 antibodies 3C7, 13C3, and 13G2, the affinities of mAb237, 3C7, 13C3, and 13G2 against the glycosylated LAMP1 peptide, the unglycosylated LAMP1 peptide, and the podoplanin glycopeptide were determined by Octet. Table 8 summarizes the dissociation constants (Kd) for mAb237, 3C7, 13C3, and 13G2 against the glycosylated LAMP1 peptide, the unglycosylated LAMP1 peptide, and the podoplanin glycopeptide. No cross reactivity was observed despite the sequence similarities observed between mAb237 and 3C7, 13C3, and 13G2.

[4] = target: T1, LAMP1-Tn peptide …; assay: SPR (Biacore), antibody immobilised, peptide as analyte
Experimental: Antibody affinity assays can be carried out using surface plasmon resonance (e.g., using a Biacore system (Cytiva)). […] The affinity is determined by fitting the binding curve to a specific model: kinetic fit (1:1 model) or if applicable heterogenous ligand binding model.
To characterize the binding specificities of 3C7, 13C3, and 13G2 for non-glycosylated and Tn-glycosylated LAMP1, flow cytometry analysis of the LAMP1 mouse antibodies on T47D COSMC-KO cells was performed. […] The affinities of 3C7, 13C3, and 13G2 against the LAMP1 glycopeptides were determined by Biacore and Octet. Table 7 summarizes dissociation constants (Kd) for 3C7, 13C3, and 13G2 against different glycoforms of LAMP1 peptide, as well as unglycosylated LAMP1 and MUC1-Tn.

B1: 3C7.2C11.1C9 (antibody, V domains shown)
VH: EVKLEESGGGLVQPGGSMKVSCGASGFTFSDAWMDWVRQSPEKGLEWVAEMRSKAFNHAIYYAESVKGRFTISRDDSKSRVYLQMNLLRPEDTGIYYCTPNWDEGFAYWGQGTLVTVSA
VL: DVMLTQTPLSLPVSLGDQASISCRSSQSLVHSNGNTYLHWYLQKPGQSPKLLINKVSNRFFGVPDRFSGSGSGTDFTLKISRVEAEDLGVYFCSQSTHVPRTFGGGTKLEIK
notes: Mouse monoclonal antibody from a hybridoma (Balb/c mice immunised with KLH-LAMP1-Tn glycopeptide)
Kd [1]: 0.0182 µM | Kd [2]: 0.81 µM | Kd [3]: 0.0139 µM | Kd [4]: 0.0287 µM
